Measurements: article PMC3794996

How the values were obtained:
[1] = target: A/bat/Peru/10 H18 HA ectodomain (hemagglutinin of influenza virus A/flat-faced bat/Peru/033/2010, H18N11) (influenza A virus A/flat-faced bat/Peru/033/2010 (H18N11)); assay: crystal structure
[2] = target: A/bat/Peru/10 N11 NAL ectodomain (neuraminidase-like protein of influenza virus A/flat-faced bat/Peru/033/2010, H18N11) (influenza A virus A/flat-faced bat/Peru/033/2010 (H18N11)); assay: crystal structure
[3] = target: A/bat/Peru/10 N11 NAL protein with ectodomain plus stalk region (influenza A virus A/flat-faced bat/Peru/033/2010 (H18N11))

Substance: A/bat/Peru/10 H18 HA ectodomain (hemagglutinin of influenza virus A/flat-faced bat/Peru/033/2010, H18N11) (domain or fragment)
- stoichiometry N [1]: 3

Substance: A/bat/Peru/10 N11 NAL ectodomain (neuraminidase-like protein of influenza virus A/flat-faced bat/Peru/033/2010, H18N11) (domain or fragment)
- stoichiometry N [2]: 4

Substance: A/bat/Peru/10 N11 NAL protein with ectodomain plus stalk region (domain or fragment)
- stoichiometry N [3]: 4
